Measurements reported in doi:10.1101/2024.12.23.630205 (bioRxiv, 2024).
Where “and” joins values, the source holds several entries; their conditions need not be identical. Equal values may be shown once.

T1: hSIRT1 (114-510 aa), purified, thrombin-digested (human, UniProt Q96EB6 114-510, NT-647 fluorescent dye (in the MST only))
T1 sequence (looked up): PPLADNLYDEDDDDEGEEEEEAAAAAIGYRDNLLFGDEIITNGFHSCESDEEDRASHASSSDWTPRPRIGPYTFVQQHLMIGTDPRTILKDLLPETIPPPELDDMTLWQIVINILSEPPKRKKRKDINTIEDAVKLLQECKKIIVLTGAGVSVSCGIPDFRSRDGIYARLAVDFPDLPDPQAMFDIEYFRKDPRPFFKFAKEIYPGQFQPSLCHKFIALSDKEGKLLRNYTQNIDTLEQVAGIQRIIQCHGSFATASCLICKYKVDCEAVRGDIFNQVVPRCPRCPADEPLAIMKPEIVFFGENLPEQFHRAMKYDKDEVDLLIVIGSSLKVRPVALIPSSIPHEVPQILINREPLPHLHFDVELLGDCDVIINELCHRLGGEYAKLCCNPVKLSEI

B1: hSIRT2 (36-356 aa), purified, thrombin-digested (domain or fragment, human, UniProt Q8IXJ6 36-356, looked up)
chain: ADMDFLRNLFSQTLSLGSQKERLLDELTLEGVARYMQSERCRRVICLVGAGISTSAGIPDFRSPSTGLYDNLEKYHLPYPEAIFEISYFKKHPEPFFALAKELYPGQFKPTICHYFMRLLKDKGLLLRCYTQNIDTLERIAGLEQEDLVEAHGTFYTSHCVSASCRHEYPLSWMKEKIFSEVTPKCEDCQSLVKPDIVFFGESLPARFFSCMQSDFLKVDLLLVMGTSLQVQPFASLISKAPLSTPRLLINKEKAGQSDPFLGMIMGLGGGMDFDSKKAYRDVAWLGECDQGCLALAELLGWKKELEDLVRREHASIDAQS
B2: GST-TULP3 (60-442 aa, construct-2) (domain or fragment, human, UniProt O75386 60-442, looked up)
chain: AKPRASDEQTPLVNCHTPHSNVILHGIDGPAAVLKPDEVHAPSVSSSVVEEDAENTVDTASKPGLQERLQKHDISESVNFDEETDGISQSACLERPNSASSQNSTDTGTSGSATAAQPADNLLGDIDDLEDFVYSPAPQGVTVRCRIIRDKRGMDRGLFPTYYMYLEKEENQKIFLLAARKRKKSKTANYLISIDPVDLSREGESYVGKLRSNLMGTKFTVYDRGICPMKGRGLVGAAHTRQELAAISYETNVLGFKGPRKMSVIIPGMTLNHKQIPYQPQNNHDSLLSRWQNRTMENLVELHNKAPVWNSDTQSYVLNFRGRVTQASVKNFQIVHKNDPDYIVMQFGRVADDVFTLDYNYPLCAVQAFGIGLSSFDSKLACE
B3: deleted hTULP3 (60-442 aa, construct-2), GST tag removed (domain or fragment, human, UniProt O75386 60-442, looked up)
chain: B2 chain
B4: N-terminal hTULP3 (1-148 aa, construct-1), GST tag removed (domain or fragment, human, UniProt O75386 1-148, looked up)
chain: MEASRCRLSPSGDSVFHEEMMKMRQAKLDYQRLLLEKRQRKKRLEPFMVQPNPEARLRRAKPRASDEQTPLVNCHTPHSNVILHGIDGPAAVLKPDEVHAPSVSSSVVEEDAENTVDTASKPGLQERLQKHDISESVNFDEETDGISQ
B5: GST-tagged N-terminal hTULP3 (1-148 aa, construct-1) (domain or fragment, human, UniProt O75386 1-148, looked up)
chain: B4 chain

How the values were obtained:
[1] = molecular target: B2; assay: SPR
[2] = molecular target: T1, hSIRT1 (114-510 aa), purified, …; assay: SPR
[3] = molecular target: the molecule itself; assay: native gel or EMSA
[4] = molecular target: the molecule itself; assay: SEC
[5] = molecular target: T1, hSIRT1 (114-510 aa), purified, …; assay: MST
[6] = molecular target: B1; assay: SPR

Binder: B1
- Kd [1]: 66.7 µM and 66.5 µM

Binder: B2
- Kd [2]: 8.1 µM

Binder: B3
- stoichiometry N [3]: 2

Binder: B4
- stoichiometry N [4]: 2
- Kd [5]: 28 µM

Binder: B5
- binding result [6]: binds
